Reference: patent publication US20120058906A1 (published 2012)
Changes are numbered by the printed parent chain. Blank lines part the entries; values can stand above or below the binder they belong to.

Experiments:
[1] = target: T1, rHuman EGF R/Fc Chimera, CF (R&D Systems Cat#344-ER) (human, UniProt P00533 25-645); test: ECL (MSD Multi-Spot) binding, antigen spotted on plate; Fab 5 nM
T1 construct: Bought Fc chimera; also called epidermal growth factor receptor; Fc part of the bought chimera not given

[2] = target: T2, rHuman HGF R/c-MET/Fc Chimera, CF (R&D Systems Cat#358-MT/CF) (human, UniProt P08581 25-932); test: as above
T2 construct: Bought Fc chimera; also called HGF R/Fc; hepatocyte growth factor receptor; Fc part of the bought chimera not given

[3] = target: T3, rHuman CD44/Fc Chimera, CF (R&D Systems Cat#3660-CD) (human, UniProt P16070 21-220); test: as above
T3 construct: Bought Fc chimera; Fc part of the bought chimera not given

[4] = target: T4, Recombinant Human DLL4 (R&D Systems Cat#1506-D4/CF) (human, UniProt Q9NR61 27-524); test: ECL (MSD multi-spot), antigen on plate, Fab 0.4 nM
T4 construct: Bought recombinant protein; also called delta-like protein 4

[5] = target: T5, rHuman HGF R/c-MET/Fc Chimera, CF (R&D Systems Cat#358-MT/CF) (human, UniProt P08581 25-932); test: ECL (MSD multi-spot), antigen on plate, Fab 0.4 nM
T5 construct: Bought Fc chimera; also called HGF R/Fc; not shown: Fc of the bought chimera

[6] = target: T6, rHuman P-Cadherin/Fc Chimera, CF (R&D Systems Cat#861-PC) (human, UniProt P22223 108-654); test: ECL (MSD multi-spot), antigen on plate, Fab 0.4 nM
T6 construct: Bought Fc chimera; also called CDH3; not shown: Fc of the bought chimera

[7] = target: T7, rHuman Erythropoietin R/Fc Chimera, CF (R&D Systems Cat#963-ER) (human, UniProt P19235 25-250); test: ECL (MSD multi-spot), antigen on plate, Fab 0.4 nM
T7 construct: Bought Fc chimera; also called EPO R/Fc; Epo R; not shown: Fc of the bought chimera
T7 sequence: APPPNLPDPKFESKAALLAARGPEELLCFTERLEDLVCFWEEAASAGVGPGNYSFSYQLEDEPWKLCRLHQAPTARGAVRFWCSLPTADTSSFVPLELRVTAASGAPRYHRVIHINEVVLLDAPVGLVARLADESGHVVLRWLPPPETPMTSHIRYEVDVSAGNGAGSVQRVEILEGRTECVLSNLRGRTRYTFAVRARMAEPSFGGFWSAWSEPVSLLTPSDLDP

[8] = target: T8, rHuman Notch-1/Fc Chimera, CF (R&D Systems Cat#3647-TK) (human, UniProt P46531 19-526); test: ECL (MSD multi-spot), antigen on plate, Fab 0.4 nM
T8 construct: Bought Fc chimera; not shown: Fc of the bought chimera

[9] = target: T9, rHuman EGF R/Fc Chimera, CF (R&D Systems Cat#344-ER) (human, UniProt P00533 25-645); test: ECL (MSD multi-spot), antigen on plate, Fab 0.4 nM
T9 construct: Bought Fc chimera; also called ErbB-1; not shown: Fc of the bought chimera

[10] = target: T10, rHuman IGF-1 sR (insulin-like growth factor-1 soluble receptor), CF (R&D Systems Cat#391-GR) (human, UniProt P08069 31-932); test: ECL (MSD multi-spot), antigen on plate, Fab 0.4 nM
T10 construct: Bought soluble receptor; also called IGF-R1

[11] = target: T11, rHuman CD44/Fc Chimera, CF (R&D Systems Cat#3660-CD) (human, UniProt P16070 21-220); test: ECL (MSD multi-spot), antigen on plate, Fab 0.4 nM
T11 construct: Bought Fc chimera; not shown: Fc of the bought chimera

[12] = target: T12, rHuman ErbB2/Fc Chimera, CF (R&D Systems Cat#1129-ER) (human, UniProt P04626 23-652); test: ECL (MSD multi-spot), antigen on plate, Fab 0.4 nM
T12 construct: Bought Fc chimera; also called HER2/neu; not shown: Fc of the bought chimera

[13] = target: T13, Recombinant Human DLL4 (R&D Systems Cat#1506-D4/CF) (human, UniProt Q9NR61 27-524); test: ECL (MSD Multi-Spot) binding assay, antigen spotted on plate; Fab 6 nM; blank spot 191
T13 construct: Bought recombinant protein; also called delta-like protein 4; rHuman DLL4

[14] = target: T14, rHuman IGF-1 sR (IGF-1 sR), CF (R&D Systems Cat#391-GR) (human, UniProt P08069 31-932); test: as above
T14 construct: Bought soluble receptor; also called insulin-like growth factor-1 soluble receptor; IGF-R1

[15] = target: T15, rHuman CD44/Fc Chimera, CF (R&D Systems Cat#3660-CD) (human, UniProt P16070 21-220); test: as above
T15 construct: Bought Fc chimera; Fc part of the bought chimera not given

[16] = target: T16, rHuman Notch-1/Fc Chimera, CF (R&D Systems Cat#3647-TK) (human, UniProt P46531 19-526); test: as above
T16 construct: Bought Fc chimera; Fc part of the bought chimera not given

[17] = target: T17, rHuman Erythropoietin R/Fc Chimera, CF (R&D Systems Cat#963-ER) (human, UniProt P19235 25-250); test: as above
T17 construct: Bought Fc chimera; also called EPO R/Fc; Epo R; Fc part of the bought chimera not given
T17 sequence: T7 sequence

[18] = target: T18, rHuman ErbB2/Fc Chimera, CF (R&D Systems Cat#1129-ER) (human, UniProt P04626 23-652); test: as above
T18 construct: Bought Fc chimera; also called HER2/neu; human epidermal growth factor 2 receptor; Fc part of the bought chimera not given
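Note: blank spot per well as comparator with Hit at signal to blank ratio of 4 or more.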

ECL signal [1]: 311
ECL signal [2]: 323
ECL signal [3]: 413
B1: Fab VH1-46_IGHD6-6*01_IGHJ1*01_S102A_S103P_S104F_H111Y & L6_IGKJ1*01 (Fab, V domains shown)
VH: QVQLVQSGAEVKKPGASVKVSCKASGYTFTSYYMHWVRQAPGQGLEWMGIINPSGGSTSYAQKFQGRVTMTRDTSTSTVYMELSSLRSEDTAVYYCAREEYAPFSAEYFQYWGQGTLVTVSS
VL: not shown
notes: Fab made in E. coli; The heavy chain also carries the CH1 with Flag and His tags of Plasmid A, and the light chain the kappa constant region of Plasmid C

ECL signal [4]: 1040 ECL signal
ECL signal [5]: 120 ECL signal
ECL signal [6]: 111 ECL signal
ECL signal [7]: 224 ECL signal
ECL signal [8]: 197 ECL signal
ECL signal [9]: 173 ECL signal
ECL signal [10]: 141 ECL signal
ECL signal [11]: 176 ECL signal
ECL signal [12]: 203 ECL signal
B2: Fab VH1-46_IGHD6-6*01_IGHJ1*01_S102A_S103P_S104F & L6_IGKJ1*01_S30N (Fab, V domains shown)
VH: B1 VH with Y111H
VL: EIVLTQSPATLSLSPGERATLSCRASQSVNSYLAWYQQKPGQAPRLLIYDASNRATGIPARFSGSGSGTDFTLTISSLEPEDFAVYYCQQRSNWPPWTFGQGTKVEIKR
notes: Fab

ECL signal [13]: 1950
ECL signal [14]: 854
ECL signal [15]: 547
ECL signal [16]: 464
ECL signal [17]: 548
ECL signal [18]: 873
B3: Fab VH5-51_IGHD5-18*01>3_IGHJ4*01 & V3-4_IGLJ1*01 (Fab, V domains shown)
VH: EVQLVQSGAEVKKPGESLKISCKGSGYSFTSYWIGWVRQMPGKGLEWMGIIYPGDSDTRYSPSFQGQVTISADKSISTAYLQWSSLKASDTAMYYCARRGYSYGYDYFDYWGQGTLVTVSS
VL: QTVVTQEPSFSVSPGGTVTLTCGLSSGSVSTSYYPSWYQQTPGQAPRTLIYSTNTRSSGVPDRFSGSILGNKAALTITGAQADDESDYYCVLYMGSGISYVFGTGTKVTVL
notes: Tested as a Fab made in E. coli; also called IGHV5-51*03
